In the DeepSol protein solubility set:

assay: soluble on expression in E. coli; label from the status in PepcDB or PDB records

Row | Sequence | soluble on expression in E. coli
1 | MSLRPATDSPPLCAPPGAEVRAPSFVMPAGACDTHAHVISGDLERYPLVPDRSYTPPPAPEALYLEVLRAMGMQRGVLVQPSVYGTDNRYMLEVLQRHQDQLRGVAVVDEHVGDDELAHMHALGVRGVRINVLFRGGVNLDLMEHLAHRIADLGWHMQFLIDVRLLSEIEARMAKLPCAVVIDHFGHFPAHLGIKEAGFELLLRNVAEHGWWVKLSGAYRLSDQRPDYADTDALAHALLAVAPERMVWGSDWPHVALESTPDTSSLLDRLLSWAPSERQRQSILVDNPGALYDFKEGHHHHHH | soluble
2 | SVLVLDDRIVDAATKDLYVNGFQEEIQYQNPTPENLQHMFHQGIEILDSARMINVTHLALWKPSSFKLGNPVDFALDDNYDTFWQSDGGQPHQLDIMFSKRMDICVMAIFFSMIADESYAPSLVKVYAGHSPSDARFYKMLEVRNVNGWVALRFLDNREDDQLLKCQFIRLLFPVNHENGKDTHLRGIRLYVPSNEPHQDTHEWAQTLPETNNVFQDAILR | soluble
3 | MGSDKIHHHHHHMCNSYLEYTAAGVSDLRPYQPGKPLAELERELGIRDAIKLASNENPLGPSPLALAAVREVLPALAQYPEGSAPELRALLARQLDLDPGQFIFGNGSDQVVELAVRALAGPGTEVIVSQYAFAAYAIAAQASGATVRVAPARDYGHDLDAMASLLNANTRLVFIANPNNPTGTYLTADALETFIDSVPSHALVVLDEAYLELMDAADYPDGRRWLRRFGNLMLTRTFSKAYGLAGLRCGYGIGHPDLMAVLERVRQPFNVNTLAQVAAHAALTDRAHLQATLANNRQGIVALRDGLCNLGLTILPPAGNFTAFAVPGGGQRVYEALLLRGVIVRPLTPYGMPDHLRVSVGLPVENQRFLTMLGEVL | not soluble
4 | MASETVSNHQEKALALLQADAEKILRLIKVQMDHLTMPQCPLYEEVLDTQMFGLSREVDFAVRLGLIAEEQGKVMLGELERELSALHEAFTNKQQ | not soluble
5 | MSLNDGRLEIFQEGKPGRRIDEDQVFAAVLDALTKPAEQRTVTVAFREIPPPITAANLDQLGITTLIGVGRSDFTGSAAYRVTNIQAGMRLLHGVLIAPGEEFSFNQTIGRIDRSNGFVEGYAIIQNRTQLEWGGGICQDSTTMFRAAFWAGLPITERWGHSFYISWYDRYAFGPYGDGPGMDATIFTGGPDLKFLNDTGGWLLIQTLVDTHRHLAEVRLYGPDTGRKVLLEGPIITNRTPPPEEPVYVASPDRPVGQPRQSDTARGGMDILFTRIVLGPDGKEIERRQFVTRFKPWPNIFEYNPADEGHHHHHH | soluble
6 | MNTINRNVYPVSGLSTQSVNPDSDGIQPPDVKSGHNSQLIDFSSPQQVNGLQSSLSLSGSRPQVPATRAASDASENPVELLLNKLVEAIRNILKDLLSLFKGDQQQDQAPPPAQTQREQAPSFSQLSQTPSSASPSSPSPSAAPAPAPTPTPTEKPFVVQNDHPADKPVTVQKNTAPTPPDPVQTQDKTSVTAPPKPVAATPAAHPRATTPVTEKPDTEEKVAKPAPRAAHGQGADMSGMIGFAKEANTTGGNNGEVVTVNTVADLKKYMEDDTARTVKLGANLSADSKVSINFGANKTLLGTDKGNSLHNIYLASGKTASNDIFQNLNFTHDSRYRENGDMQMFISSGQKYWIDHITATGTKDQNPKGLDKLLYVGGKADNVSLTNSRFQNNEYGVILGQPDDSADAKAEYKGYPRMTIANNVFSDLDVRAPGLMRHGQFDVFNNSINDFHLGFTATGDATILSQANYFAKGVDVSNKASNSGVLDDYGDAHFKDIGSNVSFTQKSPVTAWTPSYNRDIKTAEAARAYDLANAGAEAVR | not soluble
7 | MIDCAIIGGGPAGLSAGLYATRGGVKNAVLFEKGMPGGQITGSSEIENYPGVKEVVSGLDFMQPWQEQCFRFGLKHEMTAVQRVSKKDSHFVILAEDGKTFEAKSVIIATGGSPKRTGIKGESEYWGKGVSTCATCDGFFYKNKEVAVLGGGDTAVEEAIYLANICKKVYLIHRRDGFRCAPITLEHAKNNDKIEFLTPYVVEEIKGDASGVSSLSIKNTATNEKRELVVPGFFIFVGYDVNNAVLKQEDNSMLCKCDEYGSIVVDFSMKTNVQGLFAAGDIRIFAPKQVVCAASDGATAALSVISYLEHH | soluble
8 | MAHHHHHHMNKNYPGRITSAPLAQQARGLSLRPGAPASFLDRAQPGGAGTGIGAQQSHHNNNLPRAPRAKPPTQLQTPAPAPPLPKEEAEEERSGAAEVAPSEVSYPEDHIYDVEDFIKLRKCQAPVPSEVMEYARAMWKEMPENMDDMENNSLRDNLFREQNASTMSKVMTDRKINNEVLGILGKVTASNLEKMKKELTDLPIRQSTKEEIDEV | soluble
9 | MGGSHHHHHHMASSVPIPGIKDISKLKFFYGFKYLWNPTVYNKIFDKLDLTKTYKHPEELKVLDLYPGVGIQSAIFYNKYCPRQYSLLEKRSSLYKFLNAKFEGSPLQILKRDPYDWSTYSNLIDEERIFVPEVQSSDHINDKFLTVANVTGEGSEGLIMQWLSCIGNKNWLYRFGKVKMLLWMPSTTARKLLARPGMHSRSKCSVVREAFTDTKLIAISDANELKGFDSQCIEEWDPILFSAAEIWPTKGKPIALVEMDPIDFDFDVDNWDYVTRHLMILKRTPLNTVMDSLGHGGQQYFNSRITDKDLLKKCPIDLTNDEFIYLTKLFMEWPFKPDILMDFVDMYQTEHSG | soluble
10 | MAHHHHHHMLMFCRVPEDTAVRISLDVKKHFVNTERTSITQAELENYIRCSMIAAGFAQEHAQLFSVVTQFHAERIPLVLFLAGPERCGKTTLAHLLAARINCSTVINAEVLRDISASIDDSLPLFAVPETSSPDSTPSMLRGAEVSAVVAAEVDKAVREGRAIIVEGENLSFAGFHRFLEPSFQLSTGAVILGLVMEICGGEAETDASHAYVQALPNLHPVYSTERLTVLAADIGDLAKGVRGIPTVYVARYTTVADNVCLSVFLHDIVVKRIIAELKRRGRVL | not soluble
11 | MGSSHHHHHHSSGLVPRGSEHLKNISPIDGRYKKACGELSAFFSEHALIKHRIIVEVRWLLFLNEEELFFEKVTDHSVEVLNQIATNITDSDIARVKAIEEETNHDVKAVEYFVKEKLKNSKREDLLKIKEYVHYLCTSEDINNVAYATCLKACLNDVVIPCLEKIMLKLKDLAVEYSHVPLLSRTHGQPASSTTFGKEMANFYARIHHHVGVIRRVKVCAKFNGAVGNFNAHKVASKDTDWVNTIGLFLKKHFNLTYSIYCTQIQDHDYICELCDGLARANGTLIDLCVDIWLYISNNLLKLKVKEKEVGSSTMPHKVNPIDFENAEGNLHIANAFFKLFSSKLPTSRLQRDLSDSTVLRNIGSSLAYCLIAYKSVLKGLNKIDIDRRNLEEELNQNWSTLAEPIQIVMKRHNYVDAYEELKQFTRGKVIDQKIMQEFIKTKCAFLPQDVVDQLLELTPATYTGYADYLAKNVERLSGERD | soluble
12 | MGSDKIHHHHHHMGNILWVASYPKSGNTWVRAFLENYIQNAEQGVDINTMHKISTAESAAHRFQARLQDGRKTTDLSLDEICALRPAVQADIAMQAHGTTFVKTHNYLGTYKEYPLHNSSVTSGSIYIVRNPLDVTVSMANYFGYSIDETIAYMAEEMTGTPNEPENVPQVITSWSMHVSSWTQNPEEAKLVLRYEDILDDPKKVFRKIESFLGLKKDPNRLKNAIKHSSFAQLKAQESKRGFVEKHENAKSFFRQGSKNQWRQVLSDEQVAKIVEHHGEQMARFKYLPGKLR | not soluble
13 | MTEIRVHQGDLPNLDNYRIDAVAVDTETLGLQPHRDRLCVVQLSSGDGTADVIQIAKGQKSAPNLVRLLSDRDITKIFHFGRFDLAILAHTFGVMPDVVFCTKIASKLTRTYTDRHGLKEICGELLNVNISKQQQSSDWAAETLSRAQIEYAASDVLYLHRLKDIFEERLKREERESVAKACFQFLPMRANLDLLGWSEIDIFAHS | not soluble
14 | MSLEEILIIDDSRQIADFLAETVLPYYGYRSRVVPTGWEGLAFLKQRQPDLILLDLQLPDTSGLDVLRQMGELGYDIPVILMTAHGTEQTAVEAFRLGAKNYLIKPFDASEAGAAIERALRERRLQREKEVLTRTLQQRLQELTILSSVGKSVTSLLDLEELLERIVDAGVYLTHAEEGYLLLRDGDELYLRAAKNLGEERVQRFRVKMDDNVAGQVIRTVKPIRLDRSQHQDLKLRTGLLVQAMLQVPLIVGRHAIGVLAVDNRVQQRTFSENDQYLLSAIADYAAIAIENSREGHHHHHH | soluble
15 | MGSDKIHHHHHHMKLGVFTVLYGNLSFTEMLDKVKGAGVQAVEIGTGGYPGDAHCPRQELLTSAEKRKRYQEELEQRGLLLGSFSCHGNPLSPDEAFRKESDQALRETIELAGKMNVPVVNCFSGTAGDHEGAKYPNWPVAPWPNEYRHILEWQWEEKLIPYWKEIGEWAETHGVKVALELHGGFLVHTPYTLLTLRKATSPAIGANLDPSHLWWQGIDPVAAIKILGREGAIHHFHAKDTFIDQEQVNMYGLTDMQPYTHIQTRAWNFRSVGCGHDLHEWTQMISALRTYGYDHVISIEHEDPLMSIDEGFETAVRNLKPLLIKEKPTEMWWA | not soluble
16 | PILYLHGFRSSPDSFKARLLAQAMHQRGLAGQWQCPQLPASPRQAAELALALAREQLAGQQDPRRLTVIGSSLGGYYATWLAERLGCQAVLLNPAVQAARDLATQVGEHRMYHSDAPFHFLPEYVEELRALYADPLTHPERYFLVAATGDEVLDWREMRDRYPGCRQRIVQGGDHGLSDFPRWMPEVLEFA | not soluble
17 | MSLEAKNTFDLSGGYVLPGFIDSHAHLLSTGLEQTRLNLFEYEAKIEAIDAIRRYAEKHDKVVAYRWDESRWRDDPTYITASDLDGIVKPVVAFRRDGHMAVANDQAMRSIGQHRPDGIFREEDMQMLDPLVKPGEEEYVQALQTAIGISASLGITGVRDIVDRATYDAYRRIKSNVRIFKVIYAEDLFAGFGSDPSDWGVKTFLDGSLGARTAAHEGWDTKNLKMSEQQFERFCEGTWSRNLPVAVHAIGDLAVRVAAETMHRHAGRQRNSIEHFELVEDGVLDIIDANTIVSAQPNFLEWAGHGGMYQDRLGESWLYRNNPYRDILDKGLKLAFGSDSMPLGPMYGIHYAVNSEFSQQRITFDEAVRSYSEAGSYLIGAENWIGRIETGYSADFAVFNERNIEDRRRLKEAKPLMTIVHGNTIYDASRVDEGHHHHHH | not soluble
18 | MQTIKNSLGQSHDYIKMFVKEGDTVVDATCGNGNDTAFLASLVGENGRVFGFDIQDKAIANTTKKLTDLNLIDRVTLIKDGHQNMDKYIDCPVKAVMFNLGYLPSGDHSISTRPETTIQALSKAMELLVTGGIITVVIYYGGDTGFEEKEKVLEFLKGVDQKKFIVQRTDFINQANCPPILVCIEKISLEHHHHHH | not soluble
19 | MNRSIDSIIAKKVSHDVGILIFQYLNDIEPLIQQSLTAAKLKDFYGLKGKYSKGRFVCPFHHGADNPTSLSMNDNKRCFHCNACGKSGTYLEFIMYMQNISGRNSYNDAKIFAANHFTKLNLGFNSIADFEQKLKDKILERYRKTNSLRYTDYYDIWLLPERYFSSKEQSQVRQYQEEQQTKPSLEVSLSNSTNKPGFILESLDLEMTIRHLKAQNIIVNGITDYDEAVQVAKNSKLIKDFTKNADKLNSVDKLTDYMSKKYNIDIDTALKYGLIFFDKSSQHQLYYSDFFMLNNRVLFPVRDHETGIIVGYQCRRTDLSAPRHYKYLNITDYQDNLITNENGTTYRDFVPFKVGNFLFNLYELKGKCINTLWITEGIADAIKLSSMGYDAVSLGQANLTDYQIYLIDKYFGKDVTLNLFFDNDDNKIGQNKSIAAAYRLWQFGFRNIRIINTFKEMGKDITDCSVKLHDDDMLRLFINHWEKQAYSFAPASNEDLSALLKTGLYSESEILFIDPRDVERIISFGEMLNKYLDFKNMTYQQLKLLKKLCSFKEDEIKILLSLSTKDFLDVQNTNEQSCHKEQL | not soluble
